Substitutions are numbered along the chain they refer to.
T1: mouse FcγRII extracellular domain, C-terminal His tag (mouse, UniProt P08101 30-210)
T1 construct: Whole entry named; also called mFcγRII; mFcgRII
T1 sequence: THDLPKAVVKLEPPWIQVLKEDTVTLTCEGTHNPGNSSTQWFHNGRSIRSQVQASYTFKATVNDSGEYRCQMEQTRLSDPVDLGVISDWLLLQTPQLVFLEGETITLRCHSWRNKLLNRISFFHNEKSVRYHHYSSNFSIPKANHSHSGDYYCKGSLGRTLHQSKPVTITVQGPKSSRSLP

T2: mouse FcγRIII extracellular domain, C-terminal His tag (mouse, UniProt P08508 31-215)
T2 construct: Whole entry named; also called mFcγRIII; mFcgRIII
T2 chain: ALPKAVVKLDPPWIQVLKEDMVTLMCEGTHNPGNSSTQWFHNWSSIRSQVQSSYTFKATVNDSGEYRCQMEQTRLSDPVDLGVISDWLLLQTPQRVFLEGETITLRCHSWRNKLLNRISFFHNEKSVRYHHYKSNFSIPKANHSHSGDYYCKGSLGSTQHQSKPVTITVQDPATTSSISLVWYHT

T3: mouse FcγRIII extracellular domain with C-terminal His tag (mouse, UniProt P08508 31-215)
T3 construct: Made on the basis of NCBI NP-034318.2; also called mFcγRIII; mFcgRIII
T3 chain: T2 chain

B1: H237-MB476/MRAL-k0 (antibody, mouse IgG1, kappa)
heavy: QVQLQESGPGLVKPSETLSLTCAVSGHSISHDHAWSWVRQPPGEGLEWIGFISYSGITNYNPSLQGRVTISRDNSKNTLYLQMNSLRAEDTAVYYCARSLARTTAMDYWGEGTLVTVSSAKTTPPSVYPLAPGSAAQTNSMVTLGCLVKGYFPEPVTVTWNSGSLSSGVHTFPAVLQSDLYTLSSSVTVPSSTWPSETVTCNVAHPASSTKVDKKIVPRDCGCKPCICQPNEVEEVFIFPPKPKDVLTITLTPKVTCVVVDISKDDPEVQFSWFVDDVEVHTAQTQPREEQFNSTFRSVSELPIMHQDWLNGKEFKCRVNSAAFPAPIEKTISKTKGRPKAPQVYTIPPPKEQMAKDKVSLTCMITDFFPEDITVEWQWNGQPAENYKNTQPIMDTDGSYFVYSKLNVQKSNWEAGNTFTCSVLHEGLHNHHTEKSLSHSPGK
light: not shown
notes: copies: 2 + 2
B2: H237-MB533/MRAL-k0 (antibody, mouse IgG1, kappa)
heavy: B1 heavy with S294L, N320D, A322D
light: not shown
notes: copies: 2 + 2
B3: H237-MB526/MRAL-k0 (antibody, mouse IgG1, kappa)
heavy: B1 heavy with S294L
light: not shown
notes: copies: 2 + 2
B4: H237-MB536/MRAL-k0 (antibody, mouse IgG1, kappa)
heavy: B1 heavy with N320D, A322D, K330R
light: not shown
notes: copies: 2 + 2
B5: H237-MB537/MRAL-k0 (antibody, mouse IgG1, kappa)
heavy: B1 heavy with S294L, N320D, A322D, K330R
light: not shown
notes: copies: 2 + 2
B6: H237-MB531/MRAL-k0 (antibody, mouse IgG1, kappa)
heavy: B1 heavy with N320D, K330R
light: not shown
notes: copies: 2 + 2
B7: H237-MB532/MRAL-k0 (antibody, mouse IgG1, kappa)
heavy: B1 heavy with A322D, K330R
light: not shown
notes: copies: 2 + 2
B8: H237-MB535/MRAL-k0 (antibody, mouse IgG1, kappa)
heavy: B1 heavy with S294L, A322D, K330R
light: not shown
notes: copies: 2 + 2
B9: H237-MB544/MRAL-k0 (antibody, mouse IgG1, kappa)
heavy: B1 heavy with Q229E, E235M, A322D, K330R
light: not shown
notes: copies: 2 + 2
B10: H237-MB528/MRAL-k0 (antibody, mouse IgG1, kappa)
heavy: B1 heavy with S294L, A322D
light: not shown
notes: copies: 2 + 2
B11: H237-MB530/MRAL-k0 (antibody, mouse IgG1, kappa)
heavy: B1 heavy with N320D, A322D
light: not shown
notes: copies: 2 + 2
B12: H237-MB542/MRAL-k0 (antibody, mouse IgG1, kappa)
heavy: B1 heavy with Q229E, E235M, N320D, A322D
light: not shown
notes: copies: 2 + 2
B13: H237-MB534/MRAL-k0 (antibody, mouse IgG1, kappa)
heavy: B1 heavy with S294L, N320D, K330R
light: not shown
notes: copies: 2 + 2
B14: H237-MB527/MRAL-k0 (antibody, mouse IgG1, kappa)
heavy: B1 heavy with S294L, N320D
light: not shown
notes: copies: 2 + 2
B15: H237-MB529/MRAL-k0 (antibody, mouse IgG1, kappa)
heavy: B1 heavy with S294L, K330R
light: not shown
notes: copies: 2 + 2
B16: H237-MB594/MRAL-k0 (antibody, mouse IgG1, kappa)
heavy: B1 heavy with Q229E, P230V, N231P, V233E, E235S
light: not shown
notes: copies: 2 + 2
B17: H237-mIgG1/MRAL-k0 (antibody)
heavy: B1 heavy with Q229T, P230V, N231P, E234S, E235S
light: not shown
notes: copies: 2 + 2
B18: H237-MB693/MRAL-k0 (antibody, mouse IgG1, kappa)
heavy: B1 heavy with Q229T, P230D, N231Y, E235Y
light: not shown
notes: copies: 2 + 2
B19: H237-MB689/MRAL-k0 (antibody, mouse IgG1, kappa)
heavy: B1 heavy with Q229E, P230V, N231P, E235N
light: not shown
notes: copies: 2 + 2
B20: H237-MB696/MRAL-k0 (antibody, mouse IgG1, kappa)
heavy: B1 heavy with Q229E, P230V, E235F
light: not shown
notes: copies: 2 + 2
B21: H237-MB690/MRAL-k0 (antibody, mouse IgG1, kappa)
heavy: B1 heavy with Q229T, N231A, E235Y
light: not shown
notes: copies: 2 + 2
B22: H237-MB692/MRAL-k0 (antibody, mouse IgG1, kappa)
heavy: B1 heavy with Q229E, N231P, E235Y
light: not shown
notes: copies: 2 + 2
B23: H237-MB698/MRAL-k0 (antibody, mouse IgG1, kappa)
heavy: B1 heavy with Q229E, P230V, N231P, V233E, E235L
light: not shown
notes: copies: 2 + 2
B24: H237-MB691/MRAL-k0 (antibody, mouse IgG1, kappa)
heavy: B1 heavy with Q229E, P230V, N231A, E235Y
light: not shown
notes: copies: 2 + 2
B25: H237-MB694/MRAL-k0 (antibody)
heavy: B1 heavy with Q229E, P230D, N231P, E235Y
light: not shown
notes: copies: 2 + 2
B26: H237-MB695/MRAL-k0 (antibody, mouse IgG1, kappa)
heavy: B1 heavy with Q229T, E235F
light: not shown
notes: copies: 2 + 2
B27: H237-MB700/MRAL-k0 (antibody, mouse IgG1, kappa)
heavy: B1 heavy with Q229E, P230V, N231P, V233E, E235Y
light: not shown
notes: copies: 2 + 2
B28: H237-MB703/MRAL-k0 (antibody, mouse IgG1, kappa)
heavy: B1 heavy with Q229E, P230A, N231P, E235N
light: not shown
notes: copies: 2 + 2
B29: H237-MB702/MRAL-k0 (antibody, mouse IgG1, kappa)
heavy: B1 heavy with Q229T, P230A, N231Y, E235N
light: not shown
notes: copies: 2 + 2

What follows are binders tested against T1, mouse FcγRII extracellular domain, … (assay: SPR (Biacore T200), 1:1 fit).
Description: (§1) Each altered antibody was analyzed for its interaction with each Fcγ receptor prepared above using Biacore T100 (GE Healthcare Japan Corp.), Biacore T200 (GE Healthcare Japan Corp.), Biacore A100, or Biacore 4000. The running buffer used was HBS-EP+ (GE Healthcare Japan Corp.). The assay temperature was set to 25° C. The sensor chips used were chips prepared by immobilizing Protein L (ACTIGEN or BioVision) onto Series S Sensor Chip CM5 (GE Healthcare Japan Corp.) or Series S Sensor Chip CM4 (GE Healthcare Japan Corp.) by the amine coupling method.
(§2) In order to calculate the KD value of each altered antibody for FcγR, kinetic analysis was conducted according to the following method: first, the antibody of interest was captured onto any of these chips and allowed to interact with mFcγR diluted with a running buffer. For the obtained sensorgram, the assay results were globally fit into the 1:1 Langmuir binding model using Biacore Evaluation Software to calculate an association rate constant ka (L/mol/s) and a dissociation rate constant kd (1/s). From these values, the dissociation constant KD (mol/L) was calculated.

Kd [nM] | Binder
0.804 | B1
0.534 | B2
0.904 | B3
0.53 | B4
0.412 | B5
0.918 | B6
0.639 | B7
0.498 | B8
0.76 | B9
0.56 | B10
0.337 | B11
0.547 | B12
0.499 | B13
0.768 | B14
0.745 | B15

Target: T2, mouse FcγRIII extracellular domain, …
Experiment: SPR (Biacore T200), 1:1 fit
Description: as §1, §2

Kd [nM] | Binder
107 | B1
39 | B2
33 | B3
36.8 | B4
31.7 | B5
85 | B6
45.4 | B7
33.2 | B8
87.2 | B9
19.3 | B10
35.1 | B11
83.3 | B12
8.34 | B13
51 | B14
47.6 | B15

Each binder was assayed against T1, mouse FcγRII extracellular domain, … (assay: SPR (Biacore T200); KD of H237-mIgG1/MRAL-k0 / KD of variant).

relative mFcγRII-binding activity (mIgG1 = 1) [fold] | Binder
1.85 | B16

Target: T2, mouse FcγRIII extracellular domain, …
Experiment: as above

relative mFcγRIII-binding activity (mIgG1 = 1) [fold] | Binder
0.1 | B16

Target: T3, mouse FcγRIII extracellular domain with …
Experiment: SPR Biacore T200

Kd [nM] | Binder
282 | B17

Target: T2, mouse FcγRIII extracellular domain, …
Experiment: SPR (Biacore T200); KD of H237-mIgG1/MRAL-k0 / KD of variant
Remark: another data set of the same source
Description: as §1, §2

relative mFcγRIII-binding activity (mIgG1 = 1) [fold] | Binder
2.6 | B1
7.2 | B2
8.5 | B3
7.7 | B4
8.9 | B5
3.3 | B6
6.2 | B7
8.5 | B8
3.2 | B9
14.6 | B10
8 | B11
3.4 | B12
33.8 | B13
5.5 | B14
5.9 | B15

Target: T1, mouse FcγRII extracellular domain, …
Experiment: as above
Remark: another data set of the same source
From the text: (§3) The antibody H chain variable region used was the variable region H237 (SEQ ID NO: 1) of the H chain VH3-IgG1 of the anti-IL-6 receptor antibody Fv4-IgG1 described in WO2009/125825. The antibody L chain commonly used was the L chain MRAL-k0 (SEQ ID NO: 2) of the anti-IL-6 receptor antibody tocilizumab. The aforementioned 7 variants were used as templates to substitute the amino acids at the alteration sites by the amino acids before the alteration. These variants were expressed and purified by the method of Reference Example 1 and evaluated for their binding to mFcγRII and mFcγRIII by the method of Reference Example 2 using Biacore T200.
as §1

relative mFcγRII-binding activity (mIgG1 = 1) [fold] | Binder
1.22 | B18
0.413 | B19
1.3 | B16
0.4 | B20
1.6 | B21
1.75 | B22
0.194 | B23
0.582 | B24
0.544 | B25
0.435 | B26
0.559 | B27
0.943 | B28
0.96 | B29

Target: T2, mouse FcγRIII extracellular domain, …
Experiment: as above
Remark: another data set of the same source
From the text: as §3, §1

relative mFcγRIII-binding activity (mIgG1 = 1) [fold] | Binder
0.094 | B18
0.075 | B19
0.057 | B16
0.094 | B20
0.188 | B21
0.115 | B22
0.024 | B23
0.071 | B24
0.031 | B25
0.088 | B26
0.044 | B27
0.104 | B28
0.145 | B29

Target: T3, mouse FcγRIII extracellular domain with …
Experiment: SPR Biacore T200
Remark: another data set of the same source
Description: as §1, §2

Kd [nM] | Binder
282 | B17

From patent publication US20150203577A1 (Chugai, published 2015)
